B1: RSPH3 (parent)
chain: VDVQTELYLEEIADRIIEVDMECQ

Variants of: B1
Assay: protein stability index of a GFP-peptide fusion (GPS, HEK-293T) (PSI 1-6); higher = more stable
Conditions: c terminus: a fixed tail appended
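Further: lentivirally expressed fusions sorted by FACS into six bins by GFP to DsRed ratio, PSI derived from sequencing read proportions per bin multiplied by bin number.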

Protein stability index of substitutions, site by site:
E10: A 1.53 | G 2.42 | F 2.25 | N 2.06 | D 2.54 | W 3.73 | T 1.86 | C 1.58 | R 2.15 | H 2 | P 3.62 | K 2.48 | S 2.39 | Y 3.16 | Q 1.93
Y8: R 3.11 | S 3.65 | W 2.51 | T 3.5 | V 2.85
D14: P 2.45 | N 2.11 | H 1.55 | Q 2.32 | A 1.94 | W 3.47 | E 1.92 | T 1.93 | K 1.93 | S 2.08
E11: R 2.22 | N 3.26 | I 3.16 | A 1.95 | S 2.02 | Q 2.73 | Y 2.88 | G 2.48 | H 2.23 | K 2.85 | M 3.38 | F 1.89 | D 1.82 | P 2.98 | T 2.41 | C 2.83
E18: I 2.01 | R 2.51 | A 2.22 | C 2.48 | N 2.7 | K 2.59 | H 2.31 | P 2.79 | M 1.94 | F 2.26 | G 2.86 | D 3.12 | S 2.44 | Q 1.57
R15: D 3.17 | C 1.54 | F 2.31 | T 2.56 | W 3.01 | M 2.24 | K 3.1 | P 3.73 | N 3.66 | H 2.77 | Q 3.58 | G 3.14 | E 3.55 | Y 2.79 | S 3.16 | A 2.55 | V 2.65
L9: C 3.4 | S 4.92 | D 5.51 | P 4.5 | W 1.97 | G 4.44 | Y 2.79 | I 2.33 | T 4.38 | N 5.14 | E 5.12 | H 4.71 | M 3.33 | Q 5.62 | K 4.65 | A 4.01 | F 2.21 | V 2.91 | R 4.19
I12: V 2.91 | M 3.11 | A 4.36 | L 1.72 | C 3.22 | D 4.39 | N 4.46 | E 4.84 | K 4.77 | S 4.98 | Q 4.37 | F 1.61 | H 4.28 | Y 2.96 | W 1.12 | P 4.53 | R 4.25 | T 4.42 | G 4.63
A13: S 2.57 | D 3.9 | W 1.65 | G 2.95 | E 2.87 | M 1.58 | T 2.62 | C 2.31 | N 3.2 | K 3.05 | I 2.22 | V 2.17 | Y 1.53 | Q 3.05 | H 2.5 | F 2.41 | P 3.53 | R 2.27
I16: Q 4.18 | D 4.54 | K 4.49 | C 2.85 | V 3.37 | F 1.87 | W 2.97 | H 4.19 | Y 2.57 | R 3.23 | A 3.63 | T 4.19 | M 2.36 | E 4.48 | G 4.3 | P 4.93
I17: Q 3.47 | A 2.41 | F 1.96 | R 3.33 | C 2.58 | T 3.6 | G 4.14 | K 3.65 | M 1.87 | Y 2.09 | L 2.17 | D 3.99 | P 4.26 | E 3.87 | N 2.81 | V 2.39 | H 2.94 | S 3.74

Reference: the supplement of paper PMC10567573
